Experimental data reported in publication PMC7791120 (2021).

Target: T1, purified TRIB2 protein (ab186094, Abcam) (Homo sapiens (Human), UniProt Q92519)
T1 chain: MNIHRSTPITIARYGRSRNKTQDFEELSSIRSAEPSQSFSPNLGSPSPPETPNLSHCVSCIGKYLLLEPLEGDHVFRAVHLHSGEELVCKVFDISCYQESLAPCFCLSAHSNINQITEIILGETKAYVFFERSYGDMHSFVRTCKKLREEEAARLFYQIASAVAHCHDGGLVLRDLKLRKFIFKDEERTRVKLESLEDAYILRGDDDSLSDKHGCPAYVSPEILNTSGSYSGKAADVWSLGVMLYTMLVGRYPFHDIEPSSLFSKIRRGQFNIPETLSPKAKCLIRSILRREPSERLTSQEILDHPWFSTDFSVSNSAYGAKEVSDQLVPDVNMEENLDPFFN
Test: in vitro reciprocal co-IP

B1: purified PCBP2 protein (H00005094-P01, Abnova) (protein)
chain: MDTGVIEGGLNVTLTIRLLMHGKEVGSIIGKKGESVKKMREESGARINISEGNCPERIITLAGPTNAIFKAFAMIIDKLEEDISSSMTNSTAASRPPVTLRLVVPASQCGSLIGKGGCKIKEIRESTGAQVQVAGDMLPNSTERAITIAGIPQSIIECVKQICVVMLETLSQSPPKGVTIPYRPKPSSSPVIFAGGQDRYSTGSDSASFPHTTPSMCLNPDLEGPPLEAYTIQGQYAIPQPDLTKLHQLAMQQSHFPMTHGNTGFSGIESSSPEVKGYWGLDASAQTTSHELTIPNDLIGCIIGRQGAKINEIRQMSGAQIKIANPVEGSTDRQVTITGSAASISLAQYLINVRLSSETGGMGSS
B1: binds.
